# Key:
# Recombinant Human DLL4 [1] = target: T1, Recombinant Human DLL4 (human, UniProt Q9NR61 27-524); test: ELISA on plate-coated DLL4, Fab at 20 nM (3-fold serial dilution)
# T1 construct: Bought recombinant human DLL4 (R&D Systems 1506-D4/CF); also called delta-like protein 4; rHuman DLL4
# Recombinant Human DLL4 [2] = target: T1, Recombinant Human DLL4; test: ELISA on plate-coated DLL4, Fab at 0.74 nM (3-fold serial dilution)
# Recombinant Human DLL4 [3] = target: T1, Recombinant Human DLL4; test: ELISA on plate-coated DLL4, Fab at 2.22 nM (3-fold serial dilution)
# Recombinant Human DLL4 [4] = target: T1, Recombinant Human DLL4; test: ELISA on plate-coated DLL4, Fab at 6.67 nM (3-fold serial dilution)
# Recombinant Human DLL4 [5] = target: T1, Recombinant Human DLL4; test: ECL (MSD) binding assay, Fab on immobilised recombinant human DLL4; Fab concentration not given in the table
# [6] = target: T2, Recombinant Human DLL4 (delta-like protein 4) (human, UniProt Q9NR61 27-529); test: 96-well plate ECL binding assay, DLL4 immobilised, Fab in solution
# T2 construct: Bought recombinant human DLL4 (R&D Systems Cat#1506-D4/CF); also called rHuman DLL4; Delta-like 4
# [7] = target: T2, Recombinant Human DLL4 (delta-like …); test: ELISA, DLL4 coated on plate, Fab in solution, absorbance at 450 nm
Binder,ELISA signal (Recombinant Human DLL4 [1]),ELISA signal (Recombinant Human DLL4 [2]),ELISA signal (Recombinant Human DLL4 [3]),ELISA signal (Recombinant Human DLL4 [4]),ECL signal (Recombinant Human DLL4 [5]),ECL signal [6],ELISA (Avgerage signal-noise) [7]
"Fab VH1-46_IGHD6-6*01_IGHJ1*01 S102A/S103P/S104F/H111F I51V/N52L/S54T/G56H & L6_IGKJ1*01 S28N/S30D/S31H S52L/A55G (Fab, V domains shown, Fab expressed in E. coli: VH joined to CH1 from Plasmid A (His6 and Flag tags), VL joined to kappa CL from Plasmid C; also called H:APFF VLTH & L:NDH LG) VH: QVQLVQSGAEVKKPGASVKVSCKASGYTFTSYYMHWVRQAPGQGLEWMGIVLPTGHSTSYAQKFQGRVTMTRDTSTSTVYMELSSLRSEDTAVYYCAREEYAPFSAEYFQFWGQGTLVTVSS VL: EIVLTQSPATLSLSPGERATLSCRASQNVDHYLAWYQQKPGQAPRLLIYDALNRGTGIPARFSGSGSGTDFTLTISSLEPEDFAVYYCQQRSNWPPWTFGQGTKVEIKR",1.06,0.397,0.755,0.916,12200,,
"Fab VH1-46_IGHD6-6*01_IGHJ1*01 S102A/S103P/S104F/H111F I51A/N52L/S54T/G56H & L6_IGKJ1*01 S28N/S30D/S31H S52L/A55G (Fab, V domains shown, Fab expressed in E. coli: VH joined to CH1 from Plasmid A (His6 and Flag tags), VL joined to kappa CL from Plasmid C; also called H:APFF ALTH & L:NDH LG) VH: QVQLVQSGAEVKKPGASVKVSCKASGYTFTSYYMHWVRQAPGQGLEWMGIALPTGHSTSYAQKFQGRVTMTRDTSTSTVYMELSSLRSEDTAVYYCAREEYAPFSAEYFQFWGQGTLVTVSS VL: EIVLTQSPATLSLSPGERATLSCRASQNVDHYLAWYQQKPGQAPRLLIYDALNRGTGIPARFSGSGSGTDFTLTISSLEPEDFAVYYCQQRSNWPPWTFGQGTKVEIKR",0.39,0.028,0.069,0.212,1760,,
"Fab VH1-46_IGHD6-6*01_IGHJ1*01 S102A/S103P/S104F/H111F & L6_IGKJ1*01 S28N/S30D/S31H N53H (Fab, V domains shown, Fab with CH1 (plasmid A, His6 and Flag tags) and kappa CL (plasmid C); also called H:APFF & L:NDH N53H) VH: QVQLVQSGAEVKKPGASVKVSCKASGYTFTSYYMHWVRQAPGQGLEWMGIINPSGGSTSYAQKFQGRVTMTRDTSTSTVYMELSSLRSEDTAVYYCAREEYAPFSAEYFQFWGQGTLVTVSS VL: EIVLTQSPATLSLSPGERATLSCRASQNVDHYLAWYQQKPGQAPRLLIYDASHRATGIPARFSGSGSGTDFTLTISSLEPEDFAVYYCQQRSNWPPWTFGQGTKVEIKR",,,,,,20100,0.23
"Fab VH1-46_IGHD6-6*01_IGHJ1*01 S102A/S103P/S104F/H111F & L6_IGKJ1*01 S28N/S30D/S31H S52M (Fab, V domains shown, Fab with CH1 (plasmid A, His6 and Flag tags) and kappa CL (plasmid C); also called H:APFF & L:NDH S52M) VH: QVQLVQSGAEVKKPGASVKVSCKASGYTFTSYYMHWVRQAPGQGLEWMGIINPSGGSTSYAQKFQGRVTMTRDTSTSTVYMELSSLRSEDTAVYYCAREEYAPFSAEYFQFWGQGTLVTVSS VL: EIVLTQSPATLSLSPGERATLSCRASQNVDHYLAWYQQKPGQAPRLLIYDAMNRATGIPARFSGSGSGTDFTLTISSLEPEDFAVYYCQQRSNWPPWTFGQGTKVEIKR",,,,,,19500,0.185
"Fab VH1-46_IGHD6-6*01_IGHJ1*01 S102A/S103P/S104F/H111F & L6_IGKJ1*01 S28N/S30D/S31H N53M (Fab, V domains shown, Fab with CH1 (plasmid A, His6 and Flag tags) and kappa CL (plasmid C); also called H:APFF & L:NDH N53M) VH: QVQLVQSGAEVKKPGASVKVSCKASGYTFTSYYMHWVRQAPGQGLEWMGIINPSGGSTSYAQKFQGRVTMTRDTSTSTVYMELSSLRSEDTAVYYCAREEYAPFSAEYFQFWGQGTLVTVSS VL: EIVLTQSPATLSLSPGERATLSCRASQNVDHYLAWYQQKPGQAPRLLIYDASMRATGIPARFSGSGSGTDFTLTISSLEPEDFAVYYCQQRSNWPPWTFGQGTKVEIKR",,,,,,17800,0.162
"Fab VH1-46_IGHD6-6*01_IGHJ1*01 S102A/S103P/S104F/H111F N52L/S54T/G56H & L6_IGKJ1*01 S28N/S30D/S31H (Fab, V domains shown, Fab expressed in E. coli: VH joined to CH1 from Plasmid A (His6 and Flag tags), VL joined to kappa CL from Plasmid C; also called H:APFF LTH & L:NDH) VH: QVQLVQSGAEVKKPGASVKVSCKASGYTFTSYYMHWVRQAPGQGLEWMGIILPTGHSTSYAQKFQGRVTMTRDTSTSTVYMELSSLRSEDTAVYYCAREEYAPFSAEYFQFWGQGTLVTVSS VL: EIVLTQSPATLSLSPGERATLSCRASQNVDHYLAWYQQKPGQAPRLLIYDASNRATGIPARFSGSGSGTDFTLTISSLEPEDFAVYYCQQRSNWPPWTFGQGTKVEIKR",0.863,0.27,0.463,0.739,6020,,
"Fab VH1-46_IGHD6-6*01_IGHJ1*01 S102A/S103P/S104F/H111F I51A/N52L/S54T/G56H & L6_IGKJ1*01 S28N/S30D/S31H (Fab, V domains shown, Fab expressed in E. coli: VH joined to CH1 from Plasmid A (His6 and Flag tags), VL joined to kappa CL from Plasmid C; also called H:APFF ALTH & L:NDH) VH: QVQLVQSGAEVKKPGASVKVSCKASGYTFTSYYMHWVRQAPGQGLEWMGIALPTGHSTSYAQKFQGRVTMTRDTSTSTVYMELSSLRSEDTAVYYCAREEYAPFSAEYFQFWGQGTLVTVSS VL: EIVLTQSPATLSLSPGERATLSCRASQNVDHYLAWYQQKPGQAPRLLIYDASNRATGIPARFSGSGSGTDFTLTISSLEPEDFAVYYCQQRSNWPPWTFGQGTKVEIKR",0.391,0.024,0.069,0.232,1840,,
"Fab VH1-46_IGHD6-6*01_IGHJ1*01 S102A/S103P/S104F/H111F I51V/N52L/S54T/G56H & L6_IGKJ1*01 S28N/S30D/S31H S52L/A55S (Fab, V domains shown, Fab expressed in E. coli: VH joined to CH1 from Plasmid A (His6 and Flag tags), VL joined to kappa CL from Plasmid C; also called H:APFF VLTH & L:NDH LS) VH: QVQLVQSGAEVKKPGASVKVSCKASGYTFTSYYMHWVRQAPGQGLEWMGIVLPTGHSTSYAQKFQGRVTMTRDTSTSTVYMELSSLRSEDTAVYYCAREEYAPFSAEYFQFWGQGTLVTVSS VL: EIVLTQSPATLSLSPGERATLSCRASQNVDHYLAWYQQKPGQAPRLLIYDALNRSTGIPARFSGSGSGTDFTLTISSLEPEDFAVYYCQQRSNWPPWTFGQGTKVEIKR",0.91,0.263,0.523,0.747,8000,,

# From patent US20120316071A1 (published 2012)
